Experimental data taken from patent publication US7994281 (EUROPEAN MOLECULAR BIOLOGY LABORATORY, dated 2011).
Residue numbers refer to the chain shown, from its start. Numbers in names are those of the source. Each block holds one binder with its values, some of them ahead of it.

How the values were obtained:
[1] = biological target: T1, DR5 (TRAIL-R2) Fc, recombinant receptor from R&D Systems (UniProt O14763 54-182, limits assumed); test: SPR, Biacore 3000, 37 C, receptor Fc on CM5 chip, ligand 0.1-250 nM
T1 construct: also called soluble TRAIL-R2 Fc; immobilized TRAIL-R2 Fc; not shown: Fc part of the bought Fc fusion
T1 sequence (O14763 54-182 limits assumed): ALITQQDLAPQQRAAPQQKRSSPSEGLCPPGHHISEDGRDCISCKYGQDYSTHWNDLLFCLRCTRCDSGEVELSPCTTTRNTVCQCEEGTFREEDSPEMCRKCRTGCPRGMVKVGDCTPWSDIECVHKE
Protocol: (§1) Binding experiments were performed using a surface plasmon resonance-based biosensor Biacore 3000 (Biacore AB, Uppsala, Sweden), at 37° C. Recombinant receptors were ordered from R&D systems (R&D systems, Minneapolis, Minn., USA). […] Receptors were coated at a level of ~600-800 RU. […] Between injections the receptor/sensor surface was regenerated using 30 µl of 3 M sodium acetate pH 5.2.

[2] = biological target: T2, DR4 (TRAIL-R1) Fc, recombinant receptor from R&D Systems (UniProt O00220 24-239, limits assumed); test: as above
T2 construct: also called soluble TRAIL-R1 Fc; not shown: Fc part of the bought Fc fusion
T2 sequence (O00220 24-239 limits assumed): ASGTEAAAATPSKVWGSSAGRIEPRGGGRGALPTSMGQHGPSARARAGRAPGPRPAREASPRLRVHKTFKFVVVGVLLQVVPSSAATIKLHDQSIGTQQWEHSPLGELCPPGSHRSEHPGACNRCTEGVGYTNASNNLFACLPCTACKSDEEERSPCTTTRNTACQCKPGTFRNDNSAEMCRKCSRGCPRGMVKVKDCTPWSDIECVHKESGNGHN
Protocol: as §1

[3] = biological target: T1, DR5 (TRAIL-R2) Fc, recombinant receptor …; test: SPR, Biacore 3000, 37 C, receptor on chip, 1:1 Langmuir global fit, preliminary apparent Kd
Protocol: (§2) Binding of the purified mutants was assessed in real time using surface plasmon resonance on a Biacore 3000 with a sensor chip as described above. […] Measurements performed at 37° C. to allow increased $koff$ and dissociation was monitored for 20 min. Measured $kon$ and $koff$ rates were used to calculate apparent K_d values for the mutants for the respective receptors. A global fit procedure was used and a 1:1 Langmuir interaction model.

[4] = biological target: T2, DR4 (TRAIL-R1) Fc, recombinant receptor …; test: as above
Protocol: as §2

[5] = biological target: T3, DcR1 (TRAIL-R3) Fc, recombinant receptor (UniProt O14798 26-221, limits assumed); test: SPR, Biacore 3000, 37 C, receptor Fc on CM5 chip
T3 construct: not shown: Fc part of the Fc fusion
T3 sequence (looked up): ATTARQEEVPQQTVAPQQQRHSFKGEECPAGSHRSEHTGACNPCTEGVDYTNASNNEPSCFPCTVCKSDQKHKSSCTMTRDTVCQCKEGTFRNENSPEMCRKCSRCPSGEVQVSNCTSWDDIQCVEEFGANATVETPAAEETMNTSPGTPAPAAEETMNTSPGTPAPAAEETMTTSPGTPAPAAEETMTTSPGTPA
Protocol: as §1

[6] = biological target: T1, DR5 (TRAIL-R2) Fc, recombinant receptor …; test: SPR, receptor Fc immobilised, ligand 0.1 to 250 nM
Protocol: as §1
(§3) Combinations between the stability variants and selectivity variants described above can be made, giving variants with enhanced stability and altered selectivity/specificity. […] Mutants were tested for receptor binding and biological activity as described in Examples 1, 2 and 3.

[7] = biological target: T2, DR4 (TRAIL-R1) Fc, recombinant receptor …; test: SPR, receptor Fc immobilised, ligand 0.1 to 250 nM
Protocol: as §1, §3

[8] = biological target: T2, DR4 (TRAIL-R1) Fc, recombinant receptor …; test: SPR, Biacore 3000, 25 C, receptor amine-coupled to CM5 chip, ligand 2 ug/ml
Protocol: Binding experiments were performed using a surface plasmon resonance-based biosensor Biacore 3000 (Biacore AB, Uppsala, Sweden), at 25° C. Recombinant receptors were ordered from R&D systems (R&D systems, Minneapolis, Minn., USA). Immobilization of the receptors on the sensor surface of a Biacore CM5 sensor chip was performed following a standard amine coupling procedure according to the manufacturer's instructions. A reference surface was generated simultaneously under the same conditions but without receptor injection and used as a blank to correct for instrument and buffer artifacts. […] Binding of ligands to the receptors was monitored in real-time. The receptor/sensor surface was regenerated using 3 M sodium acetate pH 5.2 injections.

murine RANK (receptor) = biological target: T4, murine RANK (receptor) (murine, UniProt O35305 31-214, limits assumed); test: SPR (Biacore): clarified E. coli extract diluted 1:50 injected over immobilised DR4, DR5, DcR1 and RANK; bars are the response as a fraction of the DR4 response
T4 construct: Control surface in the SPR screening
T4 sequence (looked up): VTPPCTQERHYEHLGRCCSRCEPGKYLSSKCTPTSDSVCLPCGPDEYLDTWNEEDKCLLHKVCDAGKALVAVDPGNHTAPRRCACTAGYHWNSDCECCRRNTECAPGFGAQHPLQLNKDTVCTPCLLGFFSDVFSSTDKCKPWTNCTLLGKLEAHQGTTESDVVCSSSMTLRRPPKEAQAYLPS
Protocol: (§4) Control extracts of BL21 (DE3) culture without an over-expression plasmid and of a BL21 (DE3) culture with plasmid over-expressing SH3 domain were also injected.

[9] = biological target: T2, DR4 (TRAIL-R1) Fc, recombinant receptor …; test: SPR (Biacore), E. coli extracts diluted 1:50 over immobilised receptor
Protocol: as §4

fold improvement in binding relative to wild-type TRAIL [1]: > 10 fold | fold reduction in binding relative to wild-type TRAIL [2]: > 15 fold | Kd [3]: < 400 pM | Kd [4]: 600 pM | fold decrease in binding compared to wild-type TRAIL [5]: ~10 fold
B1: TRAIL mutant D269H (ligand)
chain: VRERGPQRVAAHITGTRGRSNTLSSPNSKNEKALGRKINSWESSRSGHSFLSNLHLRNGELVIHEKGFYYIYSQTYFRFQEEIKENTKNDKQMVQYIYKYTSYPDPILLMKSARNSCWSKDAEYGLYSIYQGGIFELKENDRIFVSVTNEHLIDMHHEASFFGAFLVG

fold improvement in binding relative to wild-type TRAIL [6]: > 8 fold | fold reduction in binding relative to wild-type TRAIL [7]: > 8 fold
B2: TRAIL mutant D269HM1 (D269H combined with M1: E194I, I196S) (ligand)
chain: B1 chain with E81I, I83S

binding result [8]: binds
B3: TRAIL mutant M3 (S225A) (ligand)
chain: B1 chain with S112A, H156D
notes: Stability mutant built on soluble TRAIL 114-281

binding result (murine RANK (receptor)): no binding | Kd [3]: 500 pM | Kd [4]: 400 pM
B4: TRAIL mutant G160M (ligand)
chain: B1 chain with G47M, H156D

binding result [9]: binds
B5: TRAIL mutant E195R (ligand)
chain: B1 chain with E82R, H156D
